Source: US20260125468A1 (NONA BIOSCIENCES SUZHOU, published 2026)
Changes are numbered by the printed parent chain.

B1: PR008551, anti-B7H4xCD3 VH(3G11)-Fc-scFv(PR003366), hIgG1(dCH1, KiH, AAA) (bispecific antibody)
chain 1: RVHLAESGGGLVQAGGSLRLSCAASGSRLNDNAMAWFRQAPGKEREFVGSIFWTGGNTYYADAVKGRLTISRDNAKNALYLQMNSLKPEDTAVYYCAASRVVWYYCSGYGCSRAGDYVYWGQGTQVTVSSASEPKSSDKTHTCPPCPAPEAAGAPSVFLFPPKPKDTLMISRTPEVTCVVVDVSHEDPEVKFNWYVDGVEVHNAKTKPREEQYNSTYRVVSVLTVLHQDWLNGKEYKCKVSNKALPAPIEKTISKAKGQPREPQVYTLPPCREEMTKNQVSLWCLVKGFYPSDIAVEWESNGQPENNYKTTPPVLDSDGSFFLYSKLTVDKSRWQQGNVFSCSVMHEALHNHYTQKSLSLSPGK
chain 2: EIVMTQSPASLSVSPGERATLSCRASQSVSSNLAWYQQKPGQAPRLLIYGASTRATGIPARVSGGGSGTEFTLTISSLQSEDFAVYYCQQYKNWPFTFGPGTKLEIKGGGGSGGGGSGGGGSGGGGSQVQLVQSGAEVKKPGSSMRVSCKASEDTFSSYAISWVRQAPGQGLEWMGGTAPIFGTTNYAQKFQGRVTITADKSTSTAYMELSSLRSEDTAVYYCARGGPYFDYWGQGTLVTVSSASEPKSSDKTHTCPPCPAPEAAGAPSVFLFPPKPKDTLMISRTPEVTCVVVDVSHEDPEVKFNWYVDGVEVHNAKTKPREEQYNSTYRVVSVLTVLHQDWLNGKEYKCKVSNKALPAPIEKTISKAKGQPREPQVCTLPPSREEMTKNQVSLSCAVKGFYPSDIAVEWESNGQPENNYKTTPPVLDSDGSFFLVSKLTVDKSRWQQGNVFSCSVMHEALHNHYTQKSLSLSPGK
B2: PR003733, anti-B7H4xCD3 Fab(PR001848)-Fc-scFv(PR003366), hIgG1(KiH, LALA) (bispecific antibody)
heavy: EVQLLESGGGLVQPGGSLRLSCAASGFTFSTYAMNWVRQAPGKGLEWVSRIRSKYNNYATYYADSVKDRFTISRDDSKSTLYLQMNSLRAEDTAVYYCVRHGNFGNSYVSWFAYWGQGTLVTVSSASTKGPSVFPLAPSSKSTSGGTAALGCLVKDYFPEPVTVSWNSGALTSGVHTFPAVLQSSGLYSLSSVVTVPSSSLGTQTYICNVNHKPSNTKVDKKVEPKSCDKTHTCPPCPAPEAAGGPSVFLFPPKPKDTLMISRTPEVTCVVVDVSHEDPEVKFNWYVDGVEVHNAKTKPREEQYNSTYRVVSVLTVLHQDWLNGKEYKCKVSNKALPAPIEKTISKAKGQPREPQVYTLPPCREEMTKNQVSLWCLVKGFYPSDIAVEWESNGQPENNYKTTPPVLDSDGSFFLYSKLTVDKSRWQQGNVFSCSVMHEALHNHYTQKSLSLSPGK
light: QAVVTQEPSLTVSPGGTVTLTCRSSTGAVTTSNYANWVQQKPGQAPRGLIGGTNKRAPWTPARFSGSLLGDKAALTLLGAQPEDEAEYFCALWYSNLWVFGGGTKLTVLGQPKAAPSVTLFPPSSEELQANKATLVCLISDFYPGAVTVAWKADSSPVKAGVETTTPSKQSNNKYAASSYLSLTPEQWKSHRSYSCQVTHEGSTVEKTVAPTECS
chain: B1 chain 2 with A267G
B3: PR006003, anti-B7H4xCD3 VH(E2)-Fc-scFv(PR003366), hIgG1(dCH1, KiH, LALA) (bispecific antibody)
chain 1: not shown
chain 2: B1 chain 2 with A267G
B4: PR010982, anti-B7H4xCD3 S135-Fc-scFv(PR003366), hIgG1(dCH1, KIH, AAA) (bispecific antibody)
chain 1: EVQLLESGGGLVQPGGSLRLSCAASGRTSGIPAMSWVRQAPGKGLEWVAMAWSGGGTIYADSVKGRFTISRDNSKNTLYLQMNSLRAEDTAVYYCAAGRSTSNRADQYNYWGQGTLVTVSSASEPKSSDKTHTCPPCPAPEAAGAPSVFLFPPKPKDTLMISRTPEVTCVVVDVSHEDPEVKFNWYVDGVEVHNAKTKPREEQYNSTYRVVSVLTVLHQDWLNGKEYKCKVSNKALPAPIEKTISKAKGQPREPQVYTLPPCREEMTKNQVSLWCLVKGFYPSDIAVEWESNGQPENNYKTTPPVLDSDGSFFLYSKLTVDKSRWQQGNVFSCSVMHEALHNHYTQKSLSLSPGK
chain 2: B1 chain 2
B5: PR003899, anti-B7H4xCD3 Fab(PR003886)-Fc-scFv(PR003366), hIgG1(KIH, LALA) (bispecific antibody)
heavy: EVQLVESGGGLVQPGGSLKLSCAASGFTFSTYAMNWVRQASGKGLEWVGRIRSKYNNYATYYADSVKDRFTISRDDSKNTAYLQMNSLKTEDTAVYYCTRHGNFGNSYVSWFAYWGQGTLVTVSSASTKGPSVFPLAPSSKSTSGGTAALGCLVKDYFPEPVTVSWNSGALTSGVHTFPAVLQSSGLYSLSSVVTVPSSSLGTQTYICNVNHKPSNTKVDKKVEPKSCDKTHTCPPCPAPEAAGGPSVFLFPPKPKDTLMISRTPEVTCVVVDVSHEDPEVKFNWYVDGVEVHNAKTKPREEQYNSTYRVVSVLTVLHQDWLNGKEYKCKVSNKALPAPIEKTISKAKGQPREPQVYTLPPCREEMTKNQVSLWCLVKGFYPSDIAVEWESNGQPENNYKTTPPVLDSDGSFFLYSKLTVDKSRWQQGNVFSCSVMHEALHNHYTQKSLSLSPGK
light: B2 light
chain: B1 chain 2 with A267G
B6: PR010983, anti-B7H4xCD3 S136-Fc-scFv(PR003366), hIgG1(dCH1, KIH, AAA) (bispecific antibody)
chain 1: B4 chain 1 with G44E, L45R, W47F, L116Q
chain 2: B1 chain 2
B7: PR010985, anti-B7H4xCD3 S138-Fc-scFv(PR003366), hIgG1(dCH1, KIH, AAA) (bispecific antibody)
chain 1: B4 chain 1 with R104Y
chain 2: B1 chain 2
B8: PR010984, anti-B7H4xCD3 S137-Fc-scFv(PR003366), hIgG1(dCH1, KIH, AAA) (bispecific antibody)
chain 1: B4 chain 1 with G44E, L45R, W47F, R104Y, L116Q
chain 2: B1 chain 2

What was measured:
[1] = target: T1, CD3 on human T cells (human PBMCs or isolated T cells used as effector cells) (human, UniProt P07766 23-207; P04234 22-171; P09693 23-182); assay: cell-based or functional assay
T1 sequence (P07766 23-207, chain 1 of 3): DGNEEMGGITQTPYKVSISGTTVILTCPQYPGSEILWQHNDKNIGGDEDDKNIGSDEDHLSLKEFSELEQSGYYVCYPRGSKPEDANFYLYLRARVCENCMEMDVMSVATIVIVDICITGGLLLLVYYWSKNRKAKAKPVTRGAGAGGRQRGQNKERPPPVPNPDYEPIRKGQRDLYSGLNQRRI
T1 sequence (P04234 22-171, chain 2 of 3): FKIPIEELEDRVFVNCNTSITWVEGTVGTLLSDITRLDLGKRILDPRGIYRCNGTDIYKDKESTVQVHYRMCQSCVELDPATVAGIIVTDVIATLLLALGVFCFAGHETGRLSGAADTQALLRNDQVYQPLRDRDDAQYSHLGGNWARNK
T1 sequence (P09693 23-182, chain 3 of 3): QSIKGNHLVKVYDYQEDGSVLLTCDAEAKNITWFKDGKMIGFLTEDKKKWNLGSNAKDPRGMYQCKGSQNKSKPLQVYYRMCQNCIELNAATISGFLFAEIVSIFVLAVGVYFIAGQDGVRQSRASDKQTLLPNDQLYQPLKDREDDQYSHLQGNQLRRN

[2] = target: T1, CD3 on human T cells (human PBMCs or …); assay: cell-based or functional assay; remark: listed apart in the source

Row | Binder | EC50 of T cell-mediated cytotoxicity to MDA-MB-468 (RTCA) [1] | Max cytotoxicity (%) of T cell-mediated cytotoxicity to MDA-MB-468 (RTCA) [1] | EC50 of T cell-mediated cytotoxicity to MDA-MB-468 (RTCA, human T cells, E:T 10:1) [2]
1 | B1 | 15.2 nM | 90.7% | –
2 | B2 | 0.0248 nM | 95.2% | –
3 | B3 | 0.0465 nM | 95.1% | –
4 | B4 | – | – | 0.247 nM
5 | B5 | 0.112 nM | 96.3% | –
6 | B6 | – | – | 0.0602 nM
7 | B7 | – | – | 2.91 nM
8 | B8 | – | – | 0.576 nM
